Results taken from PMC12630689 (Nature Communications, 2025).

Target: the molecule itself
Assay: cryo-EM structure

B1: Shaker-IR-I384R (Shaker zH4 K+ channel with fast inactivation removed, Δ6-46, with the I384R mutation) (natural protein, UniProt P08510 1-655, looked up)
chain: MAAVALREQQLQRNSLDGYGSLPKLSSQDEEGGAGHGFGGGPQHFEPIPHDHDFCERVVINVSGLRFETQLRTLNQFPDTLLGDPARRLRYFDPLRNEYFFDRSRPSFDAILYYYQSGGRLRRPVNVPLDVFSEEIKFYELGDQAINKFREDEGFIKEEERPLPDNEKQRKVWLLFEYPESSQAARVVAIISVFVILLSIVIFCLETLPEFKHYKVFNTTTNGTKIEEDEVPDITDPFFLIETLCIIWFTFELTVRFLACPNKLNFCRDVMNVIDIIAIIPYFITLATVVAEEEDTLNLPKAPVSPQDKSSNQAMSLAILRVIRLVRVFRIFKLSRHSKGLQRLGRTLKASMRELGLLIFFLFIGVVLFSSAVYFAEAGSENSFFKSIPDAFWWAVVTMTTVGYGDMTPVGVWGKIVGSLCAIAGVLTIALPVPVIVSNFNYFYHRETDQEEMQSQNFNHVTSCPYLPGTLGQHMKKSSLSESSSDMMDLDDGVESTPGLTETHPGRSAVAPFLGAQQQQQQPVASSLSMSIDKQLQHPLQQLTQTQLYQQQQQQQQQQQNGFKQQQQQTQQQLQQQQSHTINASAAAATSGSGSSGLTMRHNNALAVSIETDV
stoichiometry N: 4
